Test results reported in IntAct's records for PubMed 16824542.

B1: SH2B adapter protein 2 (Rattus norvegicus (Rat)), Q9Z200 (parent)
chain: MNGATPGSAAAPAPVPDWRQFCELHAQVAAVDFAHKFCRFLRDNPTYDTPDAGTSFSRHFAANFLAVFSEEVRRVLGTAADTMEPEPAVTSVTSALKTATYGHSRSSEDVSAHVATKARVRKGFSLRNMSLCVVDGVRDLWHRRASPEPEGGATPKTTEPVSEPRDKWTRRLRLARTLAAKVELVDIQREGALRFMVADDAASGPGGTAQWQKCRLLLRRAVAGERFRLEFFVPPKASRPKVSIPLSAIIEVRTTMPLEMPEKDNTFVLKVENGAEYILETIDSLQKHSWVADIQGCVDPGDSEEDTGLSCARGGCLASRVTSCSCELLTEADMPRPPETMTAVGAVVTAPHGRARDTVGESLAHVPLETFLQTLESSGGVSESNNTGDEGAELDPDAEAELELSDYPWFHGTLSRVKAAQLVLAGGPRSHGLFVIRQSETRPGECVLTFNFQGKAKHLRLSLNGHGQCHVQHLWFQSVFDMLRHFHTHPIPLESGGSADITLRSYVRAQGPPPDPGPAPNTAAPVPACWTEPAGQHYFSSLATATCPPTSPSNGAGASSSSGSSSSATSVPPRPAEGPLSARSRSNSTEHLLEAASGATEEPADATLGRARAVENQYSFY

Variants of: B1
Conditions: with insr_human INSR

Variant	effect of a mutation on the interaction
R442A	decreasing interaction
R460A	disrupting interaction
W475H	decreasing interaction
